The record followed here is article PMC12622308.

This test deals with KFERQ-PAmCherry-Flag. The test is described as follows: co-IP (IP: HA, IB: Flag), western blot quantification. Particulars: HEK293T SIRT2KD cells; parent: est. 1.0; read off a plot. A general note: In western blotting, separated proteins are transferred to a membrane and probed.

On to HSC70-HA WT (from UniProt P11142) K557R, for which the ratio to parent is 1.6.
